This note sets out measurements from patent publication US20220242962A1 (APTEVO RESEARCH AND DEVELOPMENT, published 2022).

Changes are numbered by the printed parent chain. In names and notes the source's numbering stands.

In experiment [1] the target is T1, Recombinant FcRn/b2M protein (human, UniProt P55899 24-297; P61769 21-119, limits assumed).
T1 construct: also called hFcRn/b2M; neonatal Fc receptor
The experiment can be described thus: SPR pH 6.0, FcRn/b2M immobilized, two-state reaction model. On the procedure: Recombinant FcRn/b2M protein was generated via transient transfection of HEK-293 cells with a bi-cistronic vector containing the genes for both FcRn and […]. The complex was purified using IMAC chromatography and subsequently buffer exchanged into IMAC elution buffer after verifying purity of the IMAC eluate by analytical SEC. hFcRn/b2M at 10 μg/ml in 10 mM sodium acetate (pH 4.5) was immobilized on a CM5 chip by direct amine coupling chemistry to a level of ˜600 RU. A reference flow cell was left blank.
Different concentrations of the Fc variant protein (5-80 nM by 2-fold dilutions in pH 6.0 running buffer) including running buffer as blank were injected in randomized order at 30 μL/min for 180 seconds followed by a 120 second dissociation period.
Sensorgrams obtained from kinetic SPR measurements were analyzed by the double subtraction method. The signal from the reference flow cell was subtracted from the analyte binding response obtained from flow cell with immobilized ligands. Buffer reference was subtracted from analyte binding responses, and the final double-referenced data were analyzed with Biacore T200 Evaluation software (2.0, GE), globally fitting data to derive kinetic parameters. All sensorgrams were fitted using two-state reaction model, as described in Weirong Wang et al, DrugMetab Dispos.: 39(9): 1469-77 (2011).

Experiment [2] addresses T2, Fc gamma receptor RIIIA V176 (human, UniProt P08637 17-208).
T2 construct: soluble SPR analyte
The experiment can be described thus: SPR, Fc captured, receptor as analyte. How it is done:
(§1) Fc mutations to be potentially integrated into an ADAPTIR™ bispecific construct were analyzed for binding to the common Fc receptors (human and cyno) and C1Q, which is a component of the complement activation system. SPR experiments were conducted at 25° C. in HBS-EP+ buffer on a Biacore T200 system.
(§2) For these experiments, all four flow cells of a CM5 sensor chip were immobilized with goat F(ab′)2 anti-human Fc (Jackson ImmunoResearch) to a response level of ˜4000 RU. Fc variants and wild type Fc were diluted to 100 nM in HBS-EP+ and captured on the surface of the chip for 120 seconds at a flow rate of 10 μL/min. Fcγ receptors (human and cyno, all purchased from R&D Systems) and complement (C1Q, purchased from Quidel Corporation and Complement Technology, Inc) were diluted in HBS-EP+ and then flowed as analytes at 30 μL/min for 120 seconds followed by a 120 seconds dissociation. Regeneration was achieved by flowing 10 mM glycine pH 1.7 at 30 μL/min for 30 seconds followed by a 60 seconds stabilization. Flow cell 1 was always left as a blank (no captured protein) for purposes of background signal subtraction. Blank-subtracted sensorgrams for each captured Fc variant were inspected for the presence of binding to any of the Fcγ receptor proteins or complement. There are polymorphisms in the Human Fc receptors IIA and RIIIA, so both sequences were tested for binding.
(Surface plasmon resonance follows binding to a sensor surface in real time, without labels.)

The next experiment deals with T3, Fc gamma receptor RIIB/C (human, UniProt P31994 46-217).
T3 construct: soluble SPR analyte
T3 sequence (looked up): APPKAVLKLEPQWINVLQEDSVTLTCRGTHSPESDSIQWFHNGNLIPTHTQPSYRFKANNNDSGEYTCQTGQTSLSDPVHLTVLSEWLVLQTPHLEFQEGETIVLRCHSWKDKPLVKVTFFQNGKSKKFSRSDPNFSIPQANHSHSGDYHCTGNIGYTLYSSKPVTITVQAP
The experiment can be described thus: SPR, Fc captured, receptor as analyte. How it is done: as §1, §2

In a further experiment the target is T4, Fc gamma receptor RI (human, UniProt P12314 16-288).
T4 construct: also called FcγRI
The experiment can be described thus: SPR, Fc captured, receptor as analyte. How it is done:
as §1, §2

The target of experiment [3] is T5, Fc gamma receptor RIIA H167 (human, UniProt P12318 36-218).
T5 construct: soluble SPR analyte
T5 sequence (looked up): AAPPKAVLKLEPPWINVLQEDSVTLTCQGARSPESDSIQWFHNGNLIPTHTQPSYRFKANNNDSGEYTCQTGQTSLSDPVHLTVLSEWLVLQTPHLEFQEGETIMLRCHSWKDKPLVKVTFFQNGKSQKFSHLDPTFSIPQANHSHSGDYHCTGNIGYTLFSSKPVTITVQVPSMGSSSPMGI
The experiment can be described thus: SPR, Fc captured, receptor as analyte. On the procedure: as §1, §2

The next experiment deals with T6, Fc gamma receptor RIIIB (human, UniProt O75015 17-200).
T6 construct: soluble SPR analyte
The experiment can be described thus: SPR, Fc captured, receptor as analyte. On the procedure: as §1, §2

The next experiment deals with T7, C1Q (UniProt P02745 23-245; P02746 28-253; P02747 29-245).
T7 construct: also called complement C1Q
The experiment can be described thus: SPR, Fc captured, C1Q as analyte. On the procedure: as §1, §2

Another experiment addresses T8, Cyno RIII (cynomolgus monkey, UniProt Q8SPW2 17-208).
T8 construct: extracellular domain
The experiment can be described thus: SPR, Fc captured, receptor as analyte. On the procedure:
as §2

Experiment [4] concerns the target T9, Fc gamma receptor RIIA H131 on CHO-K1SV cells (human, UniProt P12318 34-317).
T9 construct: whole, on cells
T9 sequence (looked up): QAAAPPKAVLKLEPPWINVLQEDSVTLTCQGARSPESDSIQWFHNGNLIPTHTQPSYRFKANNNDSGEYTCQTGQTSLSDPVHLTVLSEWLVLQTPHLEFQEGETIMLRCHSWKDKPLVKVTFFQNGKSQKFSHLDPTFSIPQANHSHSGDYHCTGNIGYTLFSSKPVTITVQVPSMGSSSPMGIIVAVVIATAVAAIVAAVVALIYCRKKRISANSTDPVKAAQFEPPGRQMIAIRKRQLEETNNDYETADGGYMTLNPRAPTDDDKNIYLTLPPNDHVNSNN
The experiment can be described thus: flow cytometry, CHO-K1SV transfectants. How it is done: (§3) CHO-K1SV cells stably transfected with a series of FcγR receptors were incubated with each of the […] listed in Table 23. A typical experiment labeled approximately 100,000 cells per well, in 96-well plates, with a range of binding molecule concentrations of 1 to 1000 nM, in 100 μl of PBS buffer with 0.2% BSA and 2 mM EDTA, for 30 minutes on ice, followed by washes and incubation with PE-labeled minimum cross species reactive secondary antibody, goat anti-human IgG Fcγ, F(ab′)2 ([…]) for 30 minutes to 1 hour on ice. Signal from bound molecules was detected using a LSR-II™ flow cytometer (BD Biosciences) and analyzed by FlowJo flow cytometry analysis software. Mean fluorescence intensity (MFI) of bound molecules on cells was determined after exclusion of doublets.

Experiment [5] concerns the target T10, Fc gamma receptor RIIIA V158 on CHO-K1SV cells (human, UniProt P08637 17-254).
T10 construct: whole, on cells
The experiment can be described thus: flow cytometry, CHO-K1SV transfectants. On the procedure:
as §3
A general note: A flow cytometer gives signals particle by particle.

In experiment [6] the target is T11, Fc gamma receptor RIIB/C on CHO-K1SV cells (human, UniProt P31994 43-310).
T11 construct: whole, on cells
T11 sequence (looked up): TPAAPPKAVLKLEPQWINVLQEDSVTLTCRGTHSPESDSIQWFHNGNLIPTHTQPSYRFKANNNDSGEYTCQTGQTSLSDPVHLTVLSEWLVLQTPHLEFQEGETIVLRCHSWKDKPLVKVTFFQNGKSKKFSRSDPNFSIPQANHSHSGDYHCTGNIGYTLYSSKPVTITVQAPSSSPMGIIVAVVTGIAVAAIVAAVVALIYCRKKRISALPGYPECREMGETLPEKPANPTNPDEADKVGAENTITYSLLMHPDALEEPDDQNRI
The experiment can be described thus: flow cytometry, CHO-K1SV transfectants. How it is done:
as §3

The target in experiment [7] is T12, Fc gamma receptor RIIIB on CHO-K1SV cells (human, UniProt O75015 17-200).
T12 construct: whole, on cells
The experiment can be described thus: flow cytometry, CHO-K1SV transfectants. On the procedure:
as §3

Experiment [8] has as its target T13, Fc gamma receptor RIIIA F158 on CHO-K1SV cells (human, UniProt P08637 17-254).
T13 construct: whole, on cells
The experiment can be described thus: flow cytometry, CHO-K1SV transfectants. How it is done:
as §3

Experiment [9] concerns the target T14, Fc gamma receptor RI on CHO-K1SV cells (human, UniProt P12314 16-374).
T14 construct: whole, on cells; also called FcγR1 cells
The experiment can be described thus: flow cytometry, CHO-K1SV transfectants. On the procedure:
as §3

Experiment [10] concerns the target T15, Fc gamma receptor RIIA R167 (human, UniProt P12318 36-218).
T15 construct: soluble SPR analyte
T15 sequence (looked up): T5 sequence (looked up) with H132R
The experiment can be described thus: SPR, Fc captured, receptor as analyte, relative to wild type Fc. On the procedure:
as §1, §2

For experiment [11], the target named is T2, Fc gamma receptor RIIIA V176. Described as above. How it is done:
as §1, §2

T12 sequence (O75015 17-200): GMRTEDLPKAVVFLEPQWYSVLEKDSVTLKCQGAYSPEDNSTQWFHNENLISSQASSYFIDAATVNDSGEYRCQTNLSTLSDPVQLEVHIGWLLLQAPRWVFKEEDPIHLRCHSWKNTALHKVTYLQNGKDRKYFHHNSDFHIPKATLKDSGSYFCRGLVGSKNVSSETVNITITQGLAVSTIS
T6 sequence (O75015 17-200): as above
T13 sequence (P08637 17-254): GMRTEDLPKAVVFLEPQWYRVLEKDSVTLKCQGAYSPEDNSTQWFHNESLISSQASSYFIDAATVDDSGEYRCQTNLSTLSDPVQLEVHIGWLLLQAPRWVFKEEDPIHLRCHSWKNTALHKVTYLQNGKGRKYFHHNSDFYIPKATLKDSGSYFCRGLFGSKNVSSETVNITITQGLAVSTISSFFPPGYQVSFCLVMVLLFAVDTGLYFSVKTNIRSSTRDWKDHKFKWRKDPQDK
T2 sequence (P08637 17-208 F176V): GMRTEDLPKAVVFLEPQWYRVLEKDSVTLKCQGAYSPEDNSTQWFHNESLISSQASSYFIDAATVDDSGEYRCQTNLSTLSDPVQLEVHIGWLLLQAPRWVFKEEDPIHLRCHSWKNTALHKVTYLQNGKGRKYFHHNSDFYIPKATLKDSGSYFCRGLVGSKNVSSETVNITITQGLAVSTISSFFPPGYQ
T1 sequence (P55899 24-297 limits assumed, chain 1 of 2): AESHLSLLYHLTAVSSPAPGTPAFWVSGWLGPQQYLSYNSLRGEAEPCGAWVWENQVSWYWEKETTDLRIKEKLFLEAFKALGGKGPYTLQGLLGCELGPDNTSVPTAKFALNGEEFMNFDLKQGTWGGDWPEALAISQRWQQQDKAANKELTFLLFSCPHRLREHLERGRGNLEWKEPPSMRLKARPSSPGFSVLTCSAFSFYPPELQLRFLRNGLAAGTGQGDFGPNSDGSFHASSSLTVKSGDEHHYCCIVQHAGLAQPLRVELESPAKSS
T1 sequence (P61769 21-119 limits assumed, chain 2 of 2): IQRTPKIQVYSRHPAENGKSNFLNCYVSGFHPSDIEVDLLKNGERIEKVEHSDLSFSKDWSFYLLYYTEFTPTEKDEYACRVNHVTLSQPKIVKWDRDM
T14 sequence (P12314 16-374): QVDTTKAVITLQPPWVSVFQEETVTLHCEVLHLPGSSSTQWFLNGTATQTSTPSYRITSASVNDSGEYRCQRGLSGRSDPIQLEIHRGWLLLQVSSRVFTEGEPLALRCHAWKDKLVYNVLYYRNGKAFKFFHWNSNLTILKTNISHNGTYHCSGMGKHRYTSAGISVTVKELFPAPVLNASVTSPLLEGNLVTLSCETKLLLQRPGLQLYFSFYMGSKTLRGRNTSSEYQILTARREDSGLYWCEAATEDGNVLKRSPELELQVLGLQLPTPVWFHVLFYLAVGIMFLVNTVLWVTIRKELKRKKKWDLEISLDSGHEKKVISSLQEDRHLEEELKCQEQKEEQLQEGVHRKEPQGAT
T4 sequence (P12314 16-288 limits assumed): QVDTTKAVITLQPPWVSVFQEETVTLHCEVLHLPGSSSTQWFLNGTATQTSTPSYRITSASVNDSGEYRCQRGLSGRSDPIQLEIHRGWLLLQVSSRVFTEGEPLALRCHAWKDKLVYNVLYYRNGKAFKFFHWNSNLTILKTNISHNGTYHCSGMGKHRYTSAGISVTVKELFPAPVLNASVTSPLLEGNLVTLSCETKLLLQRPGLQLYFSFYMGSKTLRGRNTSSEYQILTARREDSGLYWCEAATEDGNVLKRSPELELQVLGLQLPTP
T8 sequence (Q8SPW2 17-208): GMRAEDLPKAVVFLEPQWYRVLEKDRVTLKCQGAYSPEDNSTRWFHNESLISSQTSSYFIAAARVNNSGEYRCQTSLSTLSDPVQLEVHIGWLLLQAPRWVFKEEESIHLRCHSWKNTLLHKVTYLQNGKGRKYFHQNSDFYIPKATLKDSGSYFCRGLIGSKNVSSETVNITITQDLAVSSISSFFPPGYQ
T7 sequence (P02745 23-245 limits assumed, chain 1 of 3): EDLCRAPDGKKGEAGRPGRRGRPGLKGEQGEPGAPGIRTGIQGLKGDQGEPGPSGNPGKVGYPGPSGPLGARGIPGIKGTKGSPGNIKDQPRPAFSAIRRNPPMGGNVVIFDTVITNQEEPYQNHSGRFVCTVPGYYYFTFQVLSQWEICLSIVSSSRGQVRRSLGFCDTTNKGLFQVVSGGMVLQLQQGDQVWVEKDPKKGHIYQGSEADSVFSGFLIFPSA
T7 sequence (P02746 28-253 limits assumed, chain 2 of 3): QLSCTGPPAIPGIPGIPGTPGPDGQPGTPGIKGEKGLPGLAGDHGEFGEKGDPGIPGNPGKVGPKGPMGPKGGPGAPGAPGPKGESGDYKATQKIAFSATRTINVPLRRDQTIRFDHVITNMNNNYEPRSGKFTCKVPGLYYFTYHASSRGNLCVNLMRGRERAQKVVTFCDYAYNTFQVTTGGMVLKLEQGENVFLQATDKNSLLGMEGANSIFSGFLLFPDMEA
T7 sequence (P02747 29-245 limits assumed, chain 3 of 3): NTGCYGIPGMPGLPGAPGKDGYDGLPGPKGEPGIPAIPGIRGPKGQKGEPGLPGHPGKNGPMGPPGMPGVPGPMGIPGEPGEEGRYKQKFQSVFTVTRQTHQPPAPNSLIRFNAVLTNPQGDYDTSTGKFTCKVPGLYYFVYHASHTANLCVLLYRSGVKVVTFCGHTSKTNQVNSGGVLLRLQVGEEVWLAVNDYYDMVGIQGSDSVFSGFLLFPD
T10 sequence (P08637 17-254 F176V): as the sequence (P08637 17-254) above, with F160V counted along it

B1: TSC 1007 (other)
chain: EPKSSDKTHTCPPCPAPPAAAPSVFLFPPKPKDTLMISRTPEVTCVVVDVSHEDPEVKFNWYVDGVEVHNAKTKPREEQYNSTYRVVSVLTVLHQDWLNGKEYKCAVSNKALPAPIEKTISKAKGQPREPQVYTLPPSRDELTKNQVSLTCLVKGFYPSDIAVEWESNGQPENNYKTTPPVLDSDGSFFLYSKLTVDKSRWQQGNVFSCSVMHEALHNHYTQKSLSLSPG
notes: IgG1 Fc with E233P, L234A, L235A, deletion of G236, G237A, K322A (EU); also called PAAdel TSC01007
The Kd is a measure of binding affinity in units of concentration. For the molecule B1, in experiment [1], the Kd turned out to be 19 nM. In addition, the binding result (in experiment [2]; with Fc gamma receptor RIIB/C; with Fc gamma receptor RI; in experiment [3]; with Fc gamma receptor RIIIB; with C1Q) was “no binding” in each case. The binding result with Cyno RIII was “no binding”; in experiment [4], “no binding (tested: 1 to 1000 nM)”; in experiment [5], “no binding (tested: 1 to 1000 nM)”; in experiment [6], “no binding (tested: 1 to 1000 nM)”; in experiment [7] it was “no binding (tested: 1 to 1000 nM)”; in experiment [8], “no binding (tested: 1 to 1000 nM)”. The figures for the binding result in experiment [9] and in experiment [10] were “no binding (tested: 1 to 1000 nM)” and “binds”, respectively.

B2: TSC 1004 (other)
chain: EPKSSDKTHTCPPCPAPPVAGAPSVFLFPPKPKDTLMISRTPEVTCVVVDVSHEDPEVKFNWYVDGVEVHNAKTKPREEQYNSTYRVVSVLTVLHQDWLNGKEYKCAVSNKALPAPIEKTISKAKGQPREPQVYTLPPSRDELTKNQVSLTCLVKGFYPSDIAVEWESNGQPENNYKTTPPVLDSDGSFFLYSKLTVDKSRWQQGNVFSCSVMHEALHNHYTQKSLSLSPG
notes: IgG1 Fc with E233P, L234V, L235A, G237A, K322A (EU); also called PVAG TSC01004
Take B2: in [1], the Kd stood at 20 nM. Also, the binding result (in experiment [2]; with Fc gamma receptor RIIB/C; with Fc gamma receptor RI; in experiment [3]; in the experiment with Fc gamma receptor RIIIB; with C1Q) was “no binding” each time. In addition, the binding result is “no binding” with Cyno RIII; “no binding (tested: 1 to 1000 nM)” in experiment [4]; “no binding (tested: 1 to 1000 nM)” in experiment [5]; “no binding (tested: 1 to 1000 nM)” in experiment [6]; “no binding (tested: 1 to 1000 nM)” in [7]; “no binding (tested: 1 to 1000 nM)” in experiment [8]. Further, the binding result is given as “no binding (tested: 1 to 1000 nM)” in experiment [9] and “binds” in experiment [10].

B3: TSC 1006 (other)
chain: B2 chain with V19A
notes: IgG1 Fc with E233P, L234A, L235A, G237A, K322A (EU); also called PAAG TSC01006
Turning to B3, the Kd in experiment [1] was found to be 19 nM. In addition, the binding result (in the experiment with Fc gamma receptor RIIB/C; in the experiment with Fc gamma receptor RI; in experiment [3]; in the experiment with Fc gamma receptor RIIIB; in the experiment with C1Q; with Cyno RIII) was “no binding” each time. For the same molecule, the binding result in [4] is “no binding (tested: 1 to 1000 nM)”; in experiment [6], “no binding (tested: 1 to 1000 nM)”; in [7], “no binding (tested: 1 to 1000 nM)”; in experiment [8] it was “no binding (tested: 1 to 1000 nM)”; in [9], “no binding (tested: 1 to 1000 nM)”; in experiment [11], “binds”. In addition, the binding result in [10] was “binds”.
